Source: patent US20050064403A1
Each block holds one molecule with its values, some of them ahead of it.

Tests used:
[1] = biological target: Kunitz trypsin inhibitor from soybeans (soybean) (UniProt P01070); experiment: cell-based or functional assay
[2] = biological target: T1, Kunitz trypsin inhibitor from soybeans (UniProt P01070)
T1 sequence: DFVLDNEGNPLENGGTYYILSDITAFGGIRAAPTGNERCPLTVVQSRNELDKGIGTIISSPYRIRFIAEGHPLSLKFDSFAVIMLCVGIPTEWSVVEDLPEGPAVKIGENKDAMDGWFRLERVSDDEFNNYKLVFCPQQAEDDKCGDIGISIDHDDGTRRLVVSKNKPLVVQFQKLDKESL

[3] = biological target: T2, Kunitz trypsin inhibitor from soybeans, P01070
T2 chain: T1 sequence

Remaining TI activity (%) [1]: 100%
Molecule: Albumin (control)

Molecule: Bromelain
Remaining TI activity (%) [2]: 30%

B1: cysteine proteinase encoded by Aspergillus niger gene nr 28 (protein)
chain: MSKLSAAISKLSLSTIATTLLLLTPPTTAYFYKYPALFVYKDTNCTDISFSLVYPSLGNCNGGYYDYAGSFQMFNIDAAYTCNGSDSTLMFEMYNSSGSDCGDESDLLFRQPVTEECTVADVESPGPLEMPVWFELGSLLGNCGGMAGTMLFGVGILEGGLETKLYWKCYSSRLNTSVTVHRLSLILSMGCTSVSDSYNELAAAHYYEDL
Remaining TI activity (%) [3]: 26%

B2: Papain (protein)
chain: IPEYVDWRQKGAVTPVKNQGSCGSCWAFSAVVTIEGIIKIRTGNLNEYSEQELLDCDRRSYGCNGGYPWSALQLVAQYGIHYRNTYPYEGVQRYCRSREKGPYAAKTDGVRQVQPYNEGALLYSIANQPVSVVLEAAGKDFQLYRGGIFVGPCGNKVDHAVAAVGYGPNYILIKNSWGTGWGENGYIRIKRGTGNSYGVCGLYTSSFYPVKN
Remaining TI activity (%) [3]: 25%
